From publication PMC7321126, “Recombinant Expression and Stapling of a Novel Long-Acting GLP-1R Peptide Agonist” (Molecules, 2020)

Columns and labels:
[1] = molecular target: GLP-1R on cAMP Hunter CHO cells (UniProt P43220)
[2] = molecular target: human GLP-1R on HEK293-GLP-1R-CRE cells (human) (UniProt P43220)
Sequence of human GLP-1R on HEK293-GLP-1R-CRE cells (human) (P43220 24-463): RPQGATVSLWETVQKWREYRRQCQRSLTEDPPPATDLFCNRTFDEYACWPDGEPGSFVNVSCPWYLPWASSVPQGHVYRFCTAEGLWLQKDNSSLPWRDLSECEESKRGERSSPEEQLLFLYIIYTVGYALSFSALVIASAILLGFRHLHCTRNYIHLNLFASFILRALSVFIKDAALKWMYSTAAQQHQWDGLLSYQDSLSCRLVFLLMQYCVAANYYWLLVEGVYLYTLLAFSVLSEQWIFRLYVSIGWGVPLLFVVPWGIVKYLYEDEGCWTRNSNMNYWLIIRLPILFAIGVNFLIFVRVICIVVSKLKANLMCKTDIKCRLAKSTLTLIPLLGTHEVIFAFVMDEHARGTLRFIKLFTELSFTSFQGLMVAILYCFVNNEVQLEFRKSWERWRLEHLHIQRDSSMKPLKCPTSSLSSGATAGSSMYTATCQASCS

Sequence of GLP-1R on cAMP Hunter CHO cells (P43220 24-463): as above

Substance	EC50, intracellular cAMP (HTRF) assay in cAMP Hunter CHO cells expressing GLP-1R [1]	EC50, CRE luciferase reporter assay in HEK293-GLP-1R-CRE cells [2]
Semaglutide (peptide)	0.21 nM	0.024 nM
exenatide (Ex-4) (from UniProt P26349 48-87) (peptide)	0.111 nM	0.037 nM
